Entries after “also recorded” stand apart in the source; their conditions may differ.
Experiments:
mutated K-ras = molecular target: T1, mutated K-ras (Mus musculus, UniProt P32883, G12D); assay: staining of tumor tissues expressing the K-ras mutation but not human MUC1; assay type: binding
T1 construct: from tissue; host or cells: tumour tissue expressing the K-ras mutation but not human MUC1

KCM tumor cells = assay: NK cell specific lysis of tumor cells; assay type: cell-based, mouse; conditions: various E:T ratios
Description: FIGS. 4A and 4B are graphs showing that an exemplary antibody of the presently disclosed subject matter (TAB-004) enhanced the cytotoxicity of Natural Killer (NK) cells to kill target tumor cells.
(§1) The TAB-004 antibody alone or conjugated to CpG ODN bound to a tumor cell line (referred to herein as the “KCM” cell line; see FIG. 3) generated from the triple transgenic PDA.MUC1.Tg mice.

CTCs = assay: […] measurement of MUC1-expressing CTCs; assay type: cell-based, human; conditions: 7.5 ml blood spiked with PANC1 cells
Method: Both breast and pancreatic primary and metastatatic tumors express high levels of tumor-associated MUC1 recognized by the TAB-004 antibody of the presently disclosed subject matter. Therefore, CTCs in these patients should be recognized by the TAB-004 antibody. In preliminary experiments, levels of MUC1 were assessed using the TAB-004 antibody. First, the ability to use the Veridex […]® system to measure MUC1-expressing CTCs using 7.5 ml blood samples (analogous to human samples) spiked with PANC1 cells, which are a human pancreatic cancer cell line was tested. Approximately 90% of the CTCs (EpCAM+ cells) expressed MUC1. […] Therefore, using the TAB-004 antibody appears to accurately detect micrometastases in pancreatic and breast cancer patients.

KCM pancreatic cell line = assay: binding to KCM pancreatic cell line; assay type: cell-based, mouse
Description: FIG. 3 is a schematic (upper left panel) showing an approach for creating a triple transgenic mouse line that expresses the Cre recombinase throughout the pancreas, a mutated K-ras oncogene polypeptide, and a human MUC1 polypeptide. This mouse develops pancreatic adenocarcinoma, cells of which were used to generate the primary tumor cell line KCM (lower panel). The KCM cell line was used to test the binding of an exemplary antibody of the presently disclosed subject matter (denoted in the Figure as “TAB” and in the instant disclosure as “TAB-004”) either alone or conjugated to CpG oligodeoxynucleotides (CpG ODN).
as §1

[1] = tested on: human pancreas and breast tumor tissue; assay: immunohistochemical staining of human tumor and normal tissue; assay type: binding; conditions: IHC
Description: FIGS. 1A and 1B are a series of photomicrographs depicting specific binding of an exemplary antibody of the presently disclosed subject matter to human and mouse pancreatic tumors. The dark staining in the panels is indicative of positive binding of the exemplary antibody to cells present in the sample. […] FIG. 1B is a series of photomicrographs depicting the binding of an exemplary antibody of the presently disclosed subject matter to spontaneous tumors present in the pancreas of 6, 16, 26, and 34 week old transgenic mice that carried a human MUC1 transgene and a K-ras^G12D mutation.
FIGS. 2A and 2B are a series of photomicrographs depicting specific binding of an exemplary antibody of the presently disclosed subject matter (i.e., a horse radish peroxidase (HRP)-labeled TAB-004 anti-MUC1 monoclonal antibody) to human breast tumor tissue. […]
Epitope screening determined that the TAB-004 monoclonal antibody (mAb) described herein bound to an epitope present within SEQ ID NO: 3. […]

B1: TAB-004: mAb of the IgG isotype produced by hybridoma ATCC PTA-11550; binds tumor-specific epitope of human MUC1 (antibody, V domains shown)
VH: EVQLQQSGGERATPGASVKMSCKTSGYTFTNYWMHWVKQRPGQGLEWIGYINPSSGYTQYNQKFKDKATLTADKSSSTAYIQLSSLTSEDSAVYYCSTYYGDYLFPYWGQGTLVTVSA
VL: DVLMTQTPLSLPVSLGDQASISCRSSQDIVYGNGNTYLEWYLQKPGQSPKLLIYKVSNRFSGVPDRFSGSGSGTDFTLKISRVEAEDLGVYYCFQGSHVPYTFGGGTKLEIKR
cross reactivity with mutated K-ras (mutated K-ras): cross reacted with mutated K-ras
specific lysis of tumor cells by NK cells (KCM tumor cells): enhanced specific lysis of KCM tumor cells
CTCs (EpCAM+ cells) expressing MUC1 (CTCs): Approximately 90%
binding to KCM cell line (KCM pancreatic cell line): bound to the KCM pancreatic cell line with equal affinity
staining of normal tissue [1]: did not bind appreciably to normal pancreas or breast tissue; also recorded: did not bind to normal tissue
staining of tumor tissue [1]: reacted strongly with tumor tissue; also recorded: strongly stained
